# Reference: patent publication US20220143148A1, “COMPOSITIONS AND METHODS FOR MODULATING CGRP SIGNALING TO REGULATE INTESTINAL INNATE LYMPHOID CELLS” (The Broad Institute, Inc., priority 2019, published 2022)
# B1: OVA (protein, UniProt P01012 2-386, looked up)
# Ovalbumin: GSIGAASMEFCFDVFKELKVHHANENIFYCPIAIMSALAMVYLGAKDSTRTQINKVVRFDKLPGFGDSIEAQCGTSVNVHSSLRDILNQITKPNDVYSFSLASRLYAEERYPILPEYLQCVKELYRGGLEPINFQTAADQARELINSWVESQTNGIIRNVLQPSSVDSQTAMVLVNAIVFKGLWEKAFKDEDTQAMPFRVTEQESKPVQMMYQIGLFRVASMASEKMKILELPFASGTMSMLVLLPDEVSGLEQLESIINFEKLTEWTSSNVMEERKIKVYLPRMKMEEKYNLTSVLMAMGITDVFSSSANLSGISSAESLKISQAVHAAHAEINEAGREVVGSAEAGVDAASVSEEFRADHPFLFCIKHIATNAVLFFGRCVSP
# Tested on: small intestinal immune cells
# Test: Droplet-based scRNA-seq of small intestinal immune cells (LP and PP), OVA vs PBS, clustering and differential expression
# Assay type: in vivo, mouse
# Conditions: cluster ID 6, PP
# Excerpt: To comprehensively characterize small intestinal immune cells, Applicants generated scRNA-Seq profiles for 58,067 immune cells collected from lamina propria (LP) and Peyer's patch (PP) regions at steady state and after induction of a type 2 inflammatory reaction to ovalbumin (OVA) (Brandt et al., 2003) (FIGS. 1A and 8A). To ensure sufficient representation of rare cells, Applicants combined a normalization strategy—removing by flow sorting either a portion of IgD+ naïve B cells, which are the most abundant cell type in PPs, or all CD19+ and CD3+ T cells (FIG. 8B, Methods)—with profiling of a sufficiently large number of cells number (P>0.99 to recover at least 15 cells from each cluster, Methods) by massively parallel scRNA-seq (Haber et al., 2017) (Methods). Applicants obtained 36,797 and 21,270 high quality cells passing initial filtering (Methods) from PP and LP regions, respectively.
# Overall, Applicants annotated 27 cell subsets across the two compartments, spanning T cells, B cells, ILCs, dendritic cells (DCs), myeloid cells and stromal cells, in frequencies ranging from 0.07% to 14%. Briefly, Applicants first partitioned the cells from the PP regions by unsupervised clustering (Methods) into 46 clusters, retained the 97% of cells that were robustly assigned cell identities in each cluster (Methods), assigned the cells from the LP regions to the 46 clusters using a classifier (Methods), and visualized the data with scvis (Ding et al., 2018), a deep generative model-based method (FIGS. 1B and 8C, Methods). Next, Applicants identified genes that were differentially expressed between the cells in each cluster and the remaining cells (Table 1, Methods), as well as between pairs of clusters (Table 2), to elucidate identities of similar cell types/states. Applicants excluded from downstream analysis clusters mostly consisting of contaminants from epithelium, likely doublets, or cells with a small number of Unique Molecular Identifiers (UMIs) (FIGS. 1C and 8D), or lacking distinct markers (Methods). Altogether, Applicants retained 27 clusters spanning 85% of the cells and each associated with distinct marker genes (FIG. 8E, Methods).
# To induce allergic reaction to OVA, 6 to 7 weeks old mice were sensitized twice, two weeks apart, with 50 μg of OVA plus 1 mg of aluminum potassium sulfate adjuvant via intraperitoneal injection. Two weeks later, mice were orally administered with 50 mg of OVA on every other day for a total of five times. 1 μg of α-CGRP peptide was administered simultaneously when indicated. Mice were deprived of food for 3-4 hours in cages with wood chip bedding for limiting antigen degradation in the stomach before each intragastric challenge.
# Isolation of cells from Peyer's patches (PPs). Peyer's patches (PPs) were carefully dissected from the small intestine under a stereo microscope using a fine scissor, pierced once with a fine forcep. Tissues were digested in freshly made digestion buffer (RPMI-1640 containing 100 μg/ml Liberase™ and 50 μg/ml DNase I at 37° C. on a roto-mixer. After 15 min, tissues were very gently mixed using a 1 ml pipette. The supernatant was collected and added to ice-cold MACS buffer (pH 7.4; PBS plus 2% FCS and 2 mM EDTA). Pre-warmed (37° C.) fresh digestion buffer was added to the remaining tissues. After rotation at 37° C. for 15 min, the mixture was vigorously mixed using a 1 ml pipette for 1 min. Supernatants from the two steps were combined and passed through 70 μm filters and stained for FACS (below).
# Isolation of cells from the lamina propria (LP). The small intestines were opened longitudinally and washed in ice-cold PBS. For scRNA-seq, roughly 0.5 cm of fragments from each of the distal, middle and proximal regions without visible PPs were collected. Epithelial cells were dissociated by tissue rotation in pre-warmed (37° C.) PBS containing 10 mM EDTA at 37° C. for 15 min, followed by additional incubation on ice for 15 min. Tissues were then shaken vigorously. […]
molecule,measurement,setting,value
B1,Mcpt1: percentage of expressing cells in OVA-treated group,,0.35
same,Mcpt2: percentage of expressing cells in OVA-treated group,,0.212
same,Mir142hg: percentage of expressing cells in OVA-treated group,,0.169
same,Mpeg1: percentage of expressing cells in OVA-treated group,,0.992
same,Napsa: percentage of expressing cells in OVA-treated group,,0.888
same,Neat1: percentage of expressing cells in OVA-treated group,,0.885
same,Nfkbia: percentage of expressing cells in OVA-treated group,,0.661
same,Nfkbiz: percentage of expressing cells in OVA-treated group,,0.336
same,Npc2: percentage of expressing cells in OVA-treated group,,0.985
same,Nr4a1: percentage of expressing cells in OVA-treated group,,0.508
same,Nr4a3: percentage of expressing cells in OVA-treated group,,0.134
same,Odc1: percentage of expressing cells in OVA-treated group,,0.366
same,Os9: percentage of expressing cells in OVA-treated group,,0.441
same,Pik3ip1: percentage of expressing cells in OVA-treated group,,0.423
same,Pim1: percentage of expressing cells in OVA-treated group,,0.509
same,Plek: percentage of expressing cells in OVA-treated group,,0.617
same,Plekho2: percentage of expressing cells in OVA-treated group,,0.201
same,Pltp: percentage of expressing cells in OVA-treated group,,0.878
same,Pnrc1: percentage of expressing cells in OVA-treated group,,0.706
same,Ppia: percentage of expressing cells in OVA-treated group,,0.998
same,Ppp1r16b: percentage of expressing cells in OVA-treated group,,0.237
same,Ppp2ca: percentage of expressing cells in OVA-treated group,,0.539
same,Psap: percentage of expressing cells in OVA-treated group,,0.997
same,Ptp4a1: percentage of expressing cells in OVA-treated group,,0.4
same,Ptpre: percentage of expressing cells in OVA-treated group,,0.392
same,Rel: percentage of expressing cells in OVA-treated group,,0.381
same,Rgs1: percentage of expressing cells in OVA-treated group,,0.466
same,Rilpl2: percentage of expressing cells in OVA-treated group,,0.851
same,Rnase6: percentage of expressing cells in OVA-treated group,,0.991
same,Rnf19b: percentage of expressing cells in OVA-treated group,,0.255
same,Rpn2: percentage of expressing cells in OVA-treated group,,0.664
same,Runx3: percentage of expressing cells in OVA-treated group,,0.53
same,S1pr4: percentage of expressing cells in OVA-treated group,,0.351
same,Sell: percentage of expressing cells in OVA-treated group,,0.983
same,Selplg: percentage of expressing cells in OVA-treated group,,0.992
same,Sf3b1: percentage of expressing cells in OVA-treated group,,0.706
same,Siah2: percentage of expressing cells in OVA-treated group,,0.253
same,Skil: percentage of expressing cells in OVA-treated group,,0.435
same,Sla2: percentage of expressing cells in OVA-treated group,,0.735
same,Smc6: percentage of expressing cells in OVA-treated group,,0.849
same,Socs3: percentage of expressing cells in OVA-treated group,,0.55
same,Spsb2: percentage of expressing cells in OVA-treated group,,0.187
same,Tgif1: percentage of expressing cells in OVA-treated group,,0.115
same,Tnfaip8l2: percentage of expressing cells in OVA-treated group,,0.512
same,Traf4: percentage of expressing cells in OVA-treated group,,0.535
same,Trim25: percentage of expressing cells in OVA-treated group,,0.339
same,VgIl4: percentage of expressing cells in OVA-treated group,,0.34
same,Vps37b: percentage of expressing cells in OVA-treated group,,0.424
same,Wnk1: percentage of expressing cells in OVA-treated group,,0.605
same,Zc3h12a: percentage of expressing cells in OVA-treated group,,0.135
same,Zfand5: percentage of expressing cells in OVA-treated group,,0.423
same,Zfp36l2: percentage of expressing cells in OVA-treated group,,0.783
same,AY036118: LN (average fold change),OVA vs PBS,−0.256
same,Atf3: LN (average fold change),OVA vs PBS,−0.693
same,Atp5h: LN (average fold change),OVA vs PBS,0.168
same,B3gnt8: LN (average fold change),OVA vs PBS,0.265
same,Bcl2l11: LN (average fold change),OVA vs PBS,−0.499
same,Bhlhe40: LN (average fold change),OVA vs PBS,−0.297
same,Bloc1s2: LN (average fold change),OVA vs PBS,0.218
same,Btg2: LN (average fold change),OVA vs PBS,−0.156
same,Ccl4: LN (average fold change),OVA vs PBS,0.241
same,Cd68: LN (average fold change),OVA vs PBS,0.204
same,Cd83: LN (average fold change),OVA vs PBS,−0.472
same,Cdv3: LN (average fold change),OVA vs PBS,−0.219
same,Clcn3: LN (average fold change),OVA vs PBS,−0.239
same,Clec10a: LN (average fold change),OVA vs PBS,0.327
same,Clec2d: LN (average fold change),OVA vs PBS,0.409
same,Coq10b: LN (average fold change),OVA vs PBS,−0.336
same,Crem: LN (average fold change),OVA vs PBS,−0.279
same,Cxcr3: LN (average fold change),OVA vs PBS,0.302
same,Cxcr4: LN (average fold change),OVA vs PBS,0.491
same,D13Ertd608e: LN (average fold change),OVA vs PBS,0.276
same,Ddit4: LN (average fold change),OVA vs PBS,1.322
same,Ddx3x: LN (average fold change),OVA vs PBS,−0.202
same,Defa24: LN (average fold change),OVA vs PBS,−1.145
